Read-outs that look alike come from different tables or passages of the source.
Key:
MBP-FUS [1] = molecular target: T1, MBP-FUS (UniProt P35637 1-526); experiment: gel filtration co-elution
GST-CRM1 = GST-CRM1 (human, UniProt O14980 1-1071); experiment: pull-down
[2] = molecular target: T2, FUS (full-length), MBP removed with Tev protease (UniProt P35637 1-526); experiment: crystal structure
T2 sequence (looked up): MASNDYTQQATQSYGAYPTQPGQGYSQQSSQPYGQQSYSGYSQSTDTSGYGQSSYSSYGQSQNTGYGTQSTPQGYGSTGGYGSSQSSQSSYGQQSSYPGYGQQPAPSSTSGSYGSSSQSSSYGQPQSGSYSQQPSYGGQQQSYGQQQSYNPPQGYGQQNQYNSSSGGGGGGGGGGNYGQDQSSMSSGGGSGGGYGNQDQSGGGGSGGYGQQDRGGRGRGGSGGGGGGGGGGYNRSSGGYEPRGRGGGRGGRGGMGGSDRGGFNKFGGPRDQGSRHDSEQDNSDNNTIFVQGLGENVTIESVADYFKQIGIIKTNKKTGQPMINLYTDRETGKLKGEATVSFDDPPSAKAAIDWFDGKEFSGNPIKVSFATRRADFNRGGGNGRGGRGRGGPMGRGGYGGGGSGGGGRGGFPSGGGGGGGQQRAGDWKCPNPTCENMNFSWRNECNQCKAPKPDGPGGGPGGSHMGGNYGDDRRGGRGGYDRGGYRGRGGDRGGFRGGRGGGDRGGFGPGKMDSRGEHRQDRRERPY

FUS(371–526) = molecular target: T3, FUS(371–526) (UniProt P35637 371-526); experiment: crystal structure
T3 sequence (looked up): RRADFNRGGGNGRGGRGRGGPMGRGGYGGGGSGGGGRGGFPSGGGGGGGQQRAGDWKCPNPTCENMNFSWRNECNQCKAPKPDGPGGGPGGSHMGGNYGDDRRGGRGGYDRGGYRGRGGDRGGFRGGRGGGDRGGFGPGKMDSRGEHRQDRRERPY

FUS(456–526) = molecular target: T4, FUS(456–526) (UniProt P35637 456-526); experiment: crystal structure
T4 sequence (looked up): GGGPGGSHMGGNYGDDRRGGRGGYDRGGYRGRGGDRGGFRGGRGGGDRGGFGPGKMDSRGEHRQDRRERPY

Karyopherin-β2 (Kapβ2) = molecular target: T5, Karyopherin-β2 (Kapβ2) (human, UniProt Q92973-2 1-890); experiment: ITC
T5 sequence: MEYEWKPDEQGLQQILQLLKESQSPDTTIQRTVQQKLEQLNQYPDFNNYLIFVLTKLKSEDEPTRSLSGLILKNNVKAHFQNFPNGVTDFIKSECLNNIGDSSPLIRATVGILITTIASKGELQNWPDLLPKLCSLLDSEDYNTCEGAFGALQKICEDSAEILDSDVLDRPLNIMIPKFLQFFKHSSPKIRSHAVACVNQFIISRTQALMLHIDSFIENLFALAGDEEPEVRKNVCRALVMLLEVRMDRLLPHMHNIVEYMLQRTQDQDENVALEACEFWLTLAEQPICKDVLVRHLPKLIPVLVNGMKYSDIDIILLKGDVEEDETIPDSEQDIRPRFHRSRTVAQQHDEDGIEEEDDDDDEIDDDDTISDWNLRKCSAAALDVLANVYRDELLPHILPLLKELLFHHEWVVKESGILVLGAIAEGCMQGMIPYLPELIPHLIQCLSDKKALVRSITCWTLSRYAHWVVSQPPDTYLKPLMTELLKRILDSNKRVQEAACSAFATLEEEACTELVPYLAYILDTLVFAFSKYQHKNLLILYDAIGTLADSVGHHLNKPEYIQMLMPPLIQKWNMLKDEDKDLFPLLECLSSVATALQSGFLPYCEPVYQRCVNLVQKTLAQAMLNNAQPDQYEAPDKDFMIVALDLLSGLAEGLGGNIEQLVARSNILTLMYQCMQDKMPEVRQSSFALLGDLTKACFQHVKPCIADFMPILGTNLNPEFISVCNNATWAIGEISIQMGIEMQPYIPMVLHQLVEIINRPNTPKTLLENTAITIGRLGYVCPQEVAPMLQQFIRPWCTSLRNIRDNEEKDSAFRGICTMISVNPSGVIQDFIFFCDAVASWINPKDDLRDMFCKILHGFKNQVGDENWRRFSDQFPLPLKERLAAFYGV

MBP-FUS [3] = molecular target: T1, MBP-FUS; experiment: gel filtration co-elution; remark: listed apart in the source

GST-CRM1, sequence (O14980 whole entry): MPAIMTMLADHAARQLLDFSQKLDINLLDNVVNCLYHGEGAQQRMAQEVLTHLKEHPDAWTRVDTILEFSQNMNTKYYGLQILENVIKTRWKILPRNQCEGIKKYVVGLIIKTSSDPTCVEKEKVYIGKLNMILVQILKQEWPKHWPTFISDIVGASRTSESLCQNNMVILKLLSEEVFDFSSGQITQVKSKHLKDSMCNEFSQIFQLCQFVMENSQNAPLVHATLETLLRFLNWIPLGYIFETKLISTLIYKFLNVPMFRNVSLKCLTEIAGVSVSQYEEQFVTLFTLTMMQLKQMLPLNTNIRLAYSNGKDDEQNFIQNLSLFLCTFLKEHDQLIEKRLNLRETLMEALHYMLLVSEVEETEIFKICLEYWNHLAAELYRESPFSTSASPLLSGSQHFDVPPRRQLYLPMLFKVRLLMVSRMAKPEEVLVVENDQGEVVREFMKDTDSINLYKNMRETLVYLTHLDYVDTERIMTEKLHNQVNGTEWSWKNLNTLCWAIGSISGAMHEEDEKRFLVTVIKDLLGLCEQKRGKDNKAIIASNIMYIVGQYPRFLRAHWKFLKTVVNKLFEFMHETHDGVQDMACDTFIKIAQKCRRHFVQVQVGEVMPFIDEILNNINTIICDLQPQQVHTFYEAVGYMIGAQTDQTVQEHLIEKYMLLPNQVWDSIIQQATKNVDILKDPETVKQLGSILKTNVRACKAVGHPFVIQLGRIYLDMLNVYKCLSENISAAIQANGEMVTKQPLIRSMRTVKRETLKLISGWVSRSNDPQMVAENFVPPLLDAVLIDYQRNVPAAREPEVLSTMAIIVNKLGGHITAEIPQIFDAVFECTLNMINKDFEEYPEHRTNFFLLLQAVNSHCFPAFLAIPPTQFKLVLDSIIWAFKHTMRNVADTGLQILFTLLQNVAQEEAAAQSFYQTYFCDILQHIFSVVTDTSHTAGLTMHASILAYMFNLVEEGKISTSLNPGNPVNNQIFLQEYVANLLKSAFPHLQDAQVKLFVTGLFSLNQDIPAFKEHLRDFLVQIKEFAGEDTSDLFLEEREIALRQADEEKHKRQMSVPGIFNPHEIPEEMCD

AUUGAGGAGCAGCAGAGAAGUUGGAGUGAAGGCAGAGAGGGGUUAAGG (ssRNA) [prD (DNMT) RNA]
binding result (MBP-FUS [1]): binds

B1: MBP-FUS(NES) chimera (PY-NLS replaced with the NES from the NS2 protein of MVM virus) (other)
chain: MASNDYTQQATQSYGAYPTQPGQGYSQQSSQPYGQQSYSGYSQSTDTSGYGQSSYSSYGQSQNTGYGTQSTPQGYGSTGGYGSSQSSQSSYGQQSSYPGYGQQPAPSSTSGSYGSSSQSSSYGQPQSGSYSQQPSYGGQQQSYGQQQSYNPPQGYGQQNQYNSSSGGGGGGGGGGNYGQDQSSMSSGGGSGGGYGNQDQSGGGGSGGYGQQDRGGRGRGGSGGGGGGGGGGYNRSSGGYEPRGRGGGRGGRGGMGGSDRGGFNKFGGPRDQGSRHDSEQDNSDNNTIFVQGLGENVTIESVADYFKQIGIIKTNKKTGQPMINLYTDRETGKLKGEATVSFDDPPSAKAAIDWFDGKEFSGNPIKVSFATRRADFNRGGGNGRGGRGRGGPMGRGGYGGGGSGGGGRGGFPSGGGGGGGQQRAGDWKCPNPTCENMNFSWRNECNQCKAPKPDGPGGGPGGSHMGGNYGDDRRGGRGGYDRGGYRGRGGDRGGFRGGRGGYSTVDEMTKKFGTLTIH
binding result (GST-CRM1): binds

B2: Kapβ2Δloop (residues 337–367 replaced with a GGSGGSG linker) (natural protein, human)
chain: MEYEWKPDEQGLQQILQLLKESQSPDTTIQRTVQQKLEQLNQYPDFNNYLIFVLTKLKSEDEPTRSLSGLILKNNVKAHFQNFPNGVTDFIKSECLNNIGDSSPLIRATVGILITTIASKGELQNWPDLLPKLCSLLDSEDYNTCEGAFGALQKICEDSAEILDSDVLDRPLNIMIPKFLQFFKHSSPKIRSHAVACVNQFIISRTQALMLHIDSFIENLFALAGDEEPEVRKNVCRALVMLLEVRMDRLLPHMHNIVEYMLQRTQDQDENVALEACEFWLTLAEQPICKDVLVRHLPKLIPVLVNGMKYSDIDIILLKGDVEEDETIPDSEQDIRGGSGGSGDTISDWNLRKCSAAALDVLANVYRDELLPHILPLLKELLFHHEWVVKESGILVLGAIAEGCMQGMIPYLPELIPHLIQCLSDKKALVRSITCWTLSRYAHWVVSQPPDTYLKPLMTELLKRILDSNKRVQEAACSAFATLEEEACTELVPYLAYILDTLVFAFSKYQHKNLLILYDAIGTLADSVGHHLNKPEYIQMLMPPLIQKWNMLKDEDKDLFPLLECLSSVATALQSGFLPYCEPVYQRCVNLVQKTLAQAMLNNAQPDQYEAPDKDFMIVALDLLSGLAEGLGGNIEQLVARSNILTLMYQCMQDKMPEVRQSSFALLGDLTKACFQHVKPCIADFMPILGTNLNPEFISVCNNATWAIGEISIQMGIEMQPYIPMVLHQLVEIINRPNTPKTLLENTAITIGRLGYVCPQEVAPMLQQFIRPWCTSLRNIRDNEEKDSAFRGICTMISVNPSGVIQDFIFFCDAVASWINPKDDLRDMFCKILHGFKNQVGDENWRRFSDQFPLPLKERLAAFYGV
binding result [2]: binds | binding result (FUS(371–526)): binds | binding result (FUS(456–526)): binds

B3: MBP-FUS(453–526) (domain or fragment, UniProt P35637 453-526, looked up)
chain: DGPGGGPGGSHMGGNYGDDRRGGRGGYDRGGYRGRGGDRGGFRGGRGGGDRGGFGPGKMDSRGEHRQDRRERPY
binding result (Karyopherin-β2 (Kapβ2)): binds

B4: MBP-FUS(371–526) (domain or fragment, UniProt P35637 371-526, looked up)
chain: T3 sequence (looked up)
binding result (Karyopherin-β2 (Kapβ2)): binds

UUAGGGUUAGGGUUAGGGUUAGGG (structured_RNA) [TERRA RNA]
binding result (MBP-FUS [3]): binds
